Patent US20090186824A1
Where no end group is shown, it is not given here.

Biological target: dipeptidyl peptidase IV (DPPIV) in plasma of ICR mouse blood (mouse), P28843
Assay: cell-based or functional assay

Sequence of dipeptidyl peptidase IV (DPPIV) in plasma of ICR mouse blood (mouse), P28843 (P28843 37-760 limits assumed): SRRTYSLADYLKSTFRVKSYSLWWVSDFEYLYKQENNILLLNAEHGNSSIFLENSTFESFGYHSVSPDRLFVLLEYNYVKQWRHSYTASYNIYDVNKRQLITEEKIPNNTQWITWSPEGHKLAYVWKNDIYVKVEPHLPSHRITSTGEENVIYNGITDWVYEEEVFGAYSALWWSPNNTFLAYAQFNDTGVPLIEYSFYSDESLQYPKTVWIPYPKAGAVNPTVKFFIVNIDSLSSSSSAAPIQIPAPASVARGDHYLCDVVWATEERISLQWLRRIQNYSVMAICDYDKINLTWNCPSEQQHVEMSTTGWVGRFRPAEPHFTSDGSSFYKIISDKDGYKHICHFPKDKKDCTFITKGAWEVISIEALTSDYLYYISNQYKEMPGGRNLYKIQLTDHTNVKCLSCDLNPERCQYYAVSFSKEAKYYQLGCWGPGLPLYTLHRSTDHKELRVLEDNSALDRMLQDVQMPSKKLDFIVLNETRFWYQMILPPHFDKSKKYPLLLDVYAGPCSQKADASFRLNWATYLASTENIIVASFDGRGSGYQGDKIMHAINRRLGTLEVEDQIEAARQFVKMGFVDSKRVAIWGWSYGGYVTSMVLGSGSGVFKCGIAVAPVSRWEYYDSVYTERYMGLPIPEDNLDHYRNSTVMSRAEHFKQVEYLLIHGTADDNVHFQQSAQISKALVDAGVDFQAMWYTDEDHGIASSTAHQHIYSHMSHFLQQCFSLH

RIVPA-OH [SEQ ID NO 10] gave a % DPPIV Activity (Saline) (% relative to saline control) of 51.
